The target of the series is PARP-1 (recombinant, unmodified) (UniProt P09874 1-1014). The series is described as follows: EMSA. In general terms: In EMSA bound probe runs differently from free probe, usually more slowly.

The source of these data is paper PMC4514111.

PARP-1 (recombinant, unmodified), sequence (P09874 whole entry): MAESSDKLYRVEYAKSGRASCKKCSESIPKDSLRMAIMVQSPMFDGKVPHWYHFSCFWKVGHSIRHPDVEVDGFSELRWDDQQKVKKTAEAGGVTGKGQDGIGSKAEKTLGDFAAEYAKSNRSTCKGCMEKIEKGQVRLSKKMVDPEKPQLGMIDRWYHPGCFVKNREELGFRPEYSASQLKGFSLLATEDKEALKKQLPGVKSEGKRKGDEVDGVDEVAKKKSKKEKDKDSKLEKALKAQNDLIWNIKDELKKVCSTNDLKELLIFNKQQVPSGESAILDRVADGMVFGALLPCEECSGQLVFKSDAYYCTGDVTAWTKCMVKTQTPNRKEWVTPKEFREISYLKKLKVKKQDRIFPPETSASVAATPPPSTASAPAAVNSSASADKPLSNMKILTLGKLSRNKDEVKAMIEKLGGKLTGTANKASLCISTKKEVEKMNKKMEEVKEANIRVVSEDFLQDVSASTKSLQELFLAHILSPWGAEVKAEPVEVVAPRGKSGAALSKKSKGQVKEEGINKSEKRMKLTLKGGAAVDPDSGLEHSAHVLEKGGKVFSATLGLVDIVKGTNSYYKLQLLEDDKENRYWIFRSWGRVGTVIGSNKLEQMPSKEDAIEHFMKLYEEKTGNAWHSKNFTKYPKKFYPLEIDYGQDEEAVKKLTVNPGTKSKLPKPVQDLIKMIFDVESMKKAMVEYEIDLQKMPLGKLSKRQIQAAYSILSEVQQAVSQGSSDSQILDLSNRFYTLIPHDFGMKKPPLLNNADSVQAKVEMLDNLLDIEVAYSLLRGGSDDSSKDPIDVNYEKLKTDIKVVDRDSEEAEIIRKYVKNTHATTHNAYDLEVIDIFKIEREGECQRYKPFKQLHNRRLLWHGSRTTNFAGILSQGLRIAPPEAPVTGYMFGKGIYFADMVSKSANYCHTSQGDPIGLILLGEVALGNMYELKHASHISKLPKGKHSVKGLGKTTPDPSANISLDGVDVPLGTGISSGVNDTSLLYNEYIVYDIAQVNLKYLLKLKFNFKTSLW

B1: NS (MOR poly(C) sequence) (dsDNA)
DNA 1: CTTCTGCTCCCCCCCCCCCTACCC
DNA 2: GGGTAGGGGGGGGGGGAGCAGAAG
B1: the binding result is given as “binds”.
